In data set [1] the test system is Photobacterium damselae α-2,6-sialyltransferase (α2,6PdST), all mutants of Table 3 (I411T, L433S, L433T, I411T/L433S, I411T/L433T). As to the kind of experiment: kinetic parameters for α-2,6-sialyltransferase, all mutants (summary). Format: biochemical. The conditions noted are these: all mutants vs wild type. On the procedure:
The kinetic parameters, kcat and Km, were obtained from nonlinear regression analysis of Michaelis-Menten equation using Sigma Plot (SigmaPlot) program.
In order to appreciate the effect of each mutation on the donor substrate and the acceptor substrate, kinetic parameters for a single amino acid substitution mutant and a combinatorial mutant were measured.

For data set [2], the system named is CC(=O)N[C@H]1[C@H]([C@H](O)[C@H](O)CO)O[C@](OP(=O)(O)OC[C@H]2O[C@@H](n3ccc(N)nc3=O)[C@H](O)[C@@H]2O)(C(=O)O)C[C@@H]1O. The data set is described as follows: purified protein, by the assay type. The conditions noted are these: other: room temperature, substrate 0.1 to 30 mM.
In the next data set the test system is α-2,6-sialyltransferase. An excerpt: The entire vector was subjected to PCR using a primer into which NNK sequence (a sequence where N is A, C, G or T, K is G or T) is introduced, the NNK sequence obtained by randomly replacing ATT and CTG sequences corresponding to amino acid positions 411 and 433 of α-2,6-sialyltransferase, thereby constructing a library. In α-2,6-sialyltransferase of the present invention, methionine is the first amino acid when counting from the first methionine sequence. In order to remove the original plasmid, the amplified gene of the sialyltransferase including the vector sequence was treated with Dpn enzyme and transformed into E. coli DH5a. Mutant genes were extracted from all of generated colonies and transformed into E. coli BW25113 (DE3). The transformed individual colonies were inoculated in the LB medium (500 μL) containing ampicillin in 96 well and shake-cultured at 30 to 37° C. for 18 to 24 hours, and then some of the culture liquid was inoculated in new LB medium (500 μL) containing 100 μg mL^−1 ampicillin and IPTG and cultured at 18 to 30° C. for 18 to 40 hours. […]
The wild type strain and mutants of sialyltransferase transformed into E. coli BW25113 (DE3) were expressed using the inducer IPTG in a culture volume of 50 mL, and purified to obtain only pure protein using Ni-NTA column, and specific activity and kinetic parameters were measured.

`OC[C@H]1O[C@@H](O[C@H]2[C@H](O)[C@@H](O)C(O)O[C@@H]2CO)[C@H](O)[C@@H](O)[C@H]1O` (stereo partly drawn) [Lac, lactose]: the “binding force with the acceptor substrate” value in data set [1] is reported as “reduced”.

In the case of “Pasteurella multocida (ATCC15742) α-2,3-sialyltransferase (α2,3PST), wild type, SEQ ID NO: 1 (Pasteurella multocida)”, the Km in data set [2] (wild type) stood at 1830 µM.

With “Pasteurella multocida α-2,3-sialyltransferase (α2,3PST) variant R313H (= R289H of SEQ ID NO: 1), SEQ ID NO: 3 (Pasteurella multocida; R313H)”, the Km in data set [2] (R313H) came to 3240 µM.

As for “Pasteurella multocida α-2,3-sialyltransferase (α2,3PST) variant R313H/T265S (= R289H/T241S of SEQ ID NO: 1), SEQ ID NO: 6 (Pasteurella multocida; R313H/T265S)”, the Km in data set [2] (R313H/T265S) amounted to 3940 µM.

As to “Pasteurella multocida α-2,3-sialyltransferase (α2,3PST) variant R313N (= R289N of SEQ ID NO: 1), SEQ ID NO: 2 (Pasteurella multocida; R313N)”, the Km in data set [2] (R313N) was found to be 2510 µM.

In the case of “Pasteurella multocida α-2,3-sialyltransferase (α2,3PST) variant R313N/T265S (= R289N/T241S of SEQ ID NO: 1), SEQ ID NO: 5 (Pasteurella multocida; R313N/T265S)”, the Km in data set [2] (R313N/T265S) came to 3330 µM.

For the molecule “Pasteurella multocida α-2,3-sialyltransferase (α2,3PST) variant T265S (= T241S of SEQ ID NO: 1), SEQ ID NO: 4 (Pasteurella multocida; T265S)”, the Michaelis-Menten constant (Km) in data set [2] (T265S) turned out to be 2230 µM.

B1: L433T (protein)
chain: MCNSDNTSLKETVSSNSADVVETETYQLTPIDAPSSFLSHSWEQTCGTPILNESDKQAISFDFVAPELKQDEKYCFTFKGITGDHRYITNTTLTVVAPTLEVYIDHASLPSLQQLIHIIQAKDEYPSNQRFVSWKRVTVDADNANKLNIHTYPLKGNNTSPEMVAAIDEYAQSKNRLNIEFYTNTAHVFNNLPPIIQPLYNNEKVKISHISLYDDGSSEYVSLYQWKDTPNKIETLEGEVSLLANYLAGTSPDAPKGMGNRYNWHKLYDTDYYFLREDYLDVEANLHDLRDYLGSSAKQMPWDEFAKLSDSQQTLFLDIVGFDKEQLQQQYSQSPLPNFIFTGTTTWAGGETKEYYAQQQVNVINNAINETSPYYLGKDYDLFFKGHPAGGVINDIILGSFPDMINIPAKISFEVLMMTDMLPDTVAGIASSTYFTIPADKVNFIVFTSSDTITDREEALKSPLVQVMLTLGIVKEKDVLFWA
modifications: L433T
As to B1, the “activity increase compared to the wild type strain” value in the data set on α-2,6-sialyltransferase (mutant search by colorimetry) is reported as 3 times. Moreover, the “Rel. Specific Ac (%)” value in the data set with α-2,6-sialyltransferase (α2,6PdST, relative to wild type, purified protein, CMP-N-acetylneuraminic acid and lactose) turned out to be 296%.

(Values after US9637768B2, “Method for preparing sialic acid derivative” (priority 2013, dated 2017).)
